Results: patent publication US10533044B2, “Integrin Antagonists” (The General Hospital Corporation, priority 2014, dated 2020)
No end group written: not given here.

Tests used:
[1] = tested on: model tumor growth and angiogenesis; details: in vivo; cited from earlier work
αVβ3 [2] = target: T1, αVβ3 (Homo sapiens, UniProt P05106+P06756); assay: AP5 epitope expression on K562-αVβ3 cells preincubated with knottin-Fc; format: cell-based; details: Ca2+ and Mg2+ 1 mM each
T1 construct: expressed in transfected cells
T1 sequence (P06756 31-889 limits assumed): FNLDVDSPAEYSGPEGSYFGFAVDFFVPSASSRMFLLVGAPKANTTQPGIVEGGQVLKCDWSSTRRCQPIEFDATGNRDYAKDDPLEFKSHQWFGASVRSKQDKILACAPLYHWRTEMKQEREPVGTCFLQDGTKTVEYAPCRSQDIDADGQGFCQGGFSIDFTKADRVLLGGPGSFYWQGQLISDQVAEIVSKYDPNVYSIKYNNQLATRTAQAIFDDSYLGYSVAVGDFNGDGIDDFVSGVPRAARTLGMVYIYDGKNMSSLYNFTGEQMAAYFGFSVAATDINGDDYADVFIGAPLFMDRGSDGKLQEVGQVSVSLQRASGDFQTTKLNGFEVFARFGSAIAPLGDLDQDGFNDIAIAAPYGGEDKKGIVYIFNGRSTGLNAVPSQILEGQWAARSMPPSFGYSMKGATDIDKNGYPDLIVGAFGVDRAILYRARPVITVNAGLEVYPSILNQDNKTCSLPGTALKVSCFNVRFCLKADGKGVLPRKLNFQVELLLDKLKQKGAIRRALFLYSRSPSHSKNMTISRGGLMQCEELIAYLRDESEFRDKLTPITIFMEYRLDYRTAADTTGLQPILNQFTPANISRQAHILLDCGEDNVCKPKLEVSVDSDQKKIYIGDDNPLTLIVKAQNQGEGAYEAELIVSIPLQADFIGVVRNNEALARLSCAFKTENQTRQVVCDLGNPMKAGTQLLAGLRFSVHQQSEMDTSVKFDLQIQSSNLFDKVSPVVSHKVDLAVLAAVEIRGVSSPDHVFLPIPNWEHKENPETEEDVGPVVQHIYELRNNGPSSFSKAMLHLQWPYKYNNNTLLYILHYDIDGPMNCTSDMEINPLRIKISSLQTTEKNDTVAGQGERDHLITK
T1 sequence (P06756 891-1048 partner limits assumed): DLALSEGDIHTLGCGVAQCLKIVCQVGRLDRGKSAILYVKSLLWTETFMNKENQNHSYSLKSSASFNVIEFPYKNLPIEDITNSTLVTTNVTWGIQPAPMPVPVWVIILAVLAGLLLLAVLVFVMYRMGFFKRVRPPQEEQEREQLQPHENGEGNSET
T1 sequence (P05106 27-788): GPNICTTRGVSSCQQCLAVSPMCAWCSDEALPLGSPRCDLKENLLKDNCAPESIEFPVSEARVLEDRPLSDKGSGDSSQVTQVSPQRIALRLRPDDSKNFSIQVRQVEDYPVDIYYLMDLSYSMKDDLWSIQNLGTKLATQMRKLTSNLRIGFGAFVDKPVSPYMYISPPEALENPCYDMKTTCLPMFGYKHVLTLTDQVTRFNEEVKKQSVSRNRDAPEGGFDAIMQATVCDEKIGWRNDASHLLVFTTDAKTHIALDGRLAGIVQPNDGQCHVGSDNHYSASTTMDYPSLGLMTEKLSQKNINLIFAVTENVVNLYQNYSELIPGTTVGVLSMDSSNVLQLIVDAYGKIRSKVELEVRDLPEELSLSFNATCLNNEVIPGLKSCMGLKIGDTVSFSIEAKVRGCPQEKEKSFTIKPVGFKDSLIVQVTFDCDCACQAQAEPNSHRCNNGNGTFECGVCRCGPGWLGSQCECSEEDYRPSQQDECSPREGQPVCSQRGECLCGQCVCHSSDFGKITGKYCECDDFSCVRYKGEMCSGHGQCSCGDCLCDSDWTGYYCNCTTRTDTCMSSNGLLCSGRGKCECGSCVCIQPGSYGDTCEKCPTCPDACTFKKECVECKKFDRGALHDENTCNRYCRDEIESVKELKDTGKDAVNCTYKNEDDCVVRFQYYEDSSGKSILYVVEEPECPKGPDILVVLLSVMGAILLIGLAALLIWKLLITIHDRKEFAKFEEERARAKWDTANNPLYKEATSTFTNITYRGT
Protocol: Cells were washed, resuspended, fixed in 4% paraformaldehyde, and analyzed using FACSCalibur or BD-LSRII flow cytometers (BD Biosciences). Binding of soluble knottin dimers to αVβ3-K562 cells was expressed as mean fluorescence intensity (MFI), as determined using FlowJo software. […] Alexa647-labeled mAb AP5 Fab (10 μg/ml) was added, and cells incubated for an additional 30 min before washing. APC-labeled goat anti-mouse Fc-specific antibody was added to anti-LIBS-1- or anti-LIBS-6-bound M21 cells for an additional 30 min at 4° C. Cells were then washed, resuspended, fixed in 4% paraformaldehyde and analyzed by flow cytometry. AP5 epitope expression was measured and expressed as MFI.
Cells were washed, resuspended, fixed in 4% paraformaldehyde, and analyzed using FACSCalibur or BD-LSRII flow cytometers (BD Biosciences). Binding of soluble knottin dimers to αVβ3-K562 cells was expressed as mean fluorescence intensity (MFI), as determined using FlowJo software. […] APC-labeled goat anti-mouse Fe-specific antibody was added to anti-LIBS-1- or anti-LIBS-6-bound M21 cells for an additional 30 min at 4° C. Cells were then washed, resuspended, fixed in 4% paraformaldehyde and analyzed by flow cytometry. AP5 epitope expression was measured and expressed as MFI.

αVβ3 [3] = target: T1, αVβ3; assay: Binding of knottin-Fc fusion proteins to K562-αVβ3 cells (FACS); details: Fc fusion in culture supernatant; Ca2+ and Mg2+ 1 mM each
Excerpt: The wild type and modified versions were transiently expressed in HEK293 cells grown in 3% FBS. Culture supernatant contained equivalent amounts of the respective fusion proteins (verified by ELISA) and of the correct size (using western blotting with anti-his tag antibody). Binding of each to K562 cells expressing recombinant αVβ3 (K562-αVβ3) was examined using FACS as described in the methods section of the above-referenced paper, except that the unlabeled bound knottin was detected by adding fluorescienated anti-human Fc mAb.
Wild type and P/W substituted forms of knottin 2.5 F were expressed as Fc fusion proteins in mammalian cells and their abilities to bind cellular αVβ3 and to express the LIBS mAb AP5 were compared. αVβ3-K562 (1×10^6) cells were suspended in 100 μl of culture supernatant containing equivalent amounts (based on ELISA) of WT knottin 2.5 F-Fc fusion protein, knottin 2.5 F (P/W)-Fc, WT knottin 2.5 D-Fc, or knottin 2.5 F (A/W)-Fc or medium alone and incubated for 30 min; 25° C., washed in 400 μl buffer and fluoresceinated anti-FC-specific antibody added for an additional 30 min at 4° C. Cells were washed, resuspended, fixed in 4% paraformaldehyde, and analyzed using FACSCalibur or BD-LSRII flow cytometers (BD Biosciences). Binding of soluble knottin dimers to αVβ3-K562 cells was expressed as mean fluorescence intensity (MFI), as determined using FlowJo software. […]

K562-αVβ3 cells = assay: Mn2+-induced spreading of K562-αVβ3 cells on immobilized FN forms; format: cell-based, human; details: 1 mM Mn2+
Protocol: The various FN-coated surfaces were washed with PBS, and blocked with bovine serum albumin (5% w/v in PBS; lh; 25° C.). K562-αVβ3 cells (5×10^4) were added (in TBS; 1 mM Mn^2+), in the absence or presence of LM609 mAb (10 μg/ml, added 15 min prior to plating). Cells were incubated (2 h; 37° C.), washed three times in warm TBS and fixed with 4% formaldehyde (in PBS; 25° C.; 10 min). Images were captured using an inverted phase microscope (Zeiss Axiovert 40CFL) fitted with a powershot G12 Cannon Camera. ImageJ 1.48a software (National Institutes of Health, USA) was used to quantify cell spreading of 300-400 random selected cells. Spread cells were clearly distinguishable from round, refringent non-spread cells. Representative phase contrast images were collected using Zeiss Axiovert 35 inverted microscope using a CCD camera and Spot software (Diagnostics Instruments). Adhesion of transiently transfected HEK293 expressing equivalent amounts of αVβ3(N339/S) or αV(N266/Q)β3(N339/S) was done by adding cells (3×10^4) in TBS containing Ca^2+/Mg^2+ and 0.1% BSA (w/v) to FN-coated surfaces (45 min; 25° C.). Non-adherent cells were removed by washing and adherent cells fixed (2% paraformaldehyde; 30 min; 25° C.), stained (0.1% Crystal Violet; 30 min; 25° C.), washed with water, air dried and then solubilized (1% SDS). Relative cell attachment was estimated by absorbance of the lysates at 540 nm measured using a SpectraMax M2E microplate reader (Molecular Devices, Sunnyvale, Calif.).

αVβ3 ectodomain = target: T2, αVβ3 ectodomain (Homo sapiens, UniProt P05106+P06756); assay: Hydrodynamic shift assay (molecular sieve chromatography, Stokes radius); details: in Mn2+ (6.3 nm without ligand)
T2 construct: αVβ3 ectodomain was incubated alone or with FN10; made in house; host or cells: insect cells
T2 sequence (P06756 31-987): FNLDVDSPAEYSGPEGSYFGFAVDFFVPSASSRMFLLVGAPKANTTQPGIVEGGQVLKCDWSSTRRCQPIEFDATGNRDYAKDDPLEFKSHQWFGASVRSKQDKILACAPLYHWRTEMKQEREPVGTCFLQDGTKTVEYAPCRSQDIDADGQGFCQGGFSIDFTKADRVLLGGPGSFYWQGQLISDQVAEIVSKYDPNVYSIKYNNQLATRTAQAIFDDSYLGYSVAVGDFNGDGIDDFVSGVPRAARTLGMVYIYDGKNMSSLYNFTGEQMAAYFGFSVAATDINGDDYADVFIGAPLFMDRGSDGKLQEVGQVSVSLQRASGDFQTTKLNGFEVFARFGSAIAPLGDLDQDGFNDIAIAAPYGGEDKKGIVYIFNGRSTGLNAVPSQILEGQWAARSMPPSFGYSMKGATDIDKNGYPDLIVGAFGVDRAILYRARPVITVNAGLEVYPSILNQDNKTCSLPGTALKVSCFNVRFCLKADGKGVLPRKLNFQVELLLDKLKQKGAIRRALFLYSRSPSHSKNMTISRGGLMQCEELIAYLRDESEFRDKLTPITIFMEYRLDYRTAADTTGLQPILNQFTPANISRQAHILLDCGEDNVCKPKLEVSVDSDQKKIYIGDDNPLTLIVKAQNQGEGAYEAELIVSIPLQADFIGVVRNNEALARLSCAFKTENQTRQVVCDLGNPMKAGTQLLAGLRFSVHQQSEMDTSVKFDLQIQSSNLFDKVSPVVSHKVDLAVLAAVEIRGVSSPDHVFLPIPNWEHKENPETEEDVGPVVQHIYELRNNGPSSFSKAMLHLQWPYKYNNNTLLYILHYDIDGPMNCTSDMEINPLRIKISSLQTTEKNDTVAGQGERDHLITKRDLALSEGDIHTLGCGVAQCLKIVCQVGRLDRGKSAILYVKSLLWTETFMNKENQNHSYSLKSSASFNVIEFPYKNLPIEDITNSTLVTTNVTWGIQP
T2 sequence (P05106 27-718): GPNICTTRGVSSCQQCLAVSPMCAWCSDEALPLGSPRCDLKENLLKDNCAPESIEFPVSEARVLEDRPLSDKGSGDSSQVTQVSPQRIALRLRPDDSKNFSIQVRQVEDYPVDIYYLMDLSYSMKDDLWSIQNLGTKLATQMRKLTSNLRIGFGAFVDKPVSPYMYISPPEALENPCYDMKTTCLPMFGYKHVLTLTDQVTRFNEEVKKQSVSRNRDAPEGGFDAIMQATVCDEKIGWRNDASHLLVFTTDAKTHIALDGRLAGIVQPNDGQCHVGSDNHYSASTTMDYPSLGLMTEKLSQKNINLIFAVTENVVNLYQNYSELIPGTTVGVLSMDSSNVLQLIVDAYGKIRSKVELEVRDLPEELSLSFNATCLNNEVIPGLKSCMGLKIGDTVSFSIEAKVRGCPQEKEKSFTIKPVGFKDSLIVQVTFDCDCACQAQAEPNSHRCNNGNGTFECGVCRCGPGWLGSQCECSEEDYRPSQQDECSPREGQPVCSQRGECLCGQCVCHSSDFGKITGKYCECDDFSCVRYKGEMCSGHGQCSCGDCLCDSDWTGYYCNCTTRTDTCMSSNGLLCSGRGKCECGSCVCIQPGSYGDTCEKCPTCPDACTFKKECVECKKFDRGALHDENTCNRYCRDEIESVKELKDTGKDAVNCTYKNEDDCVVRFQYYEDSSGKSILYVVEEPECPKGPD
Protocol: αVβ3 ectodomain was incubated alone or with FN10 (at 2:1 FN10/integrin molar ratio) in 145 mM NaCl and 25 mM Tris-HCl, pH 7.4 (TBS) containing Ca^2+, Ca^2+/Mg^2+ or Mn^2+ (20° C.; 1.5 h). Aliquots were taken and chromatographed at room temperature at this time point on a precalibrated Superdex S-200 GL column equilibrated buffer with the same metal ion composition used during the incubation, and Stokes radii were derived as described previously (Xiong, J. P. et al. The Journal of Cell Biology 186, 589-600 (2009)). The elution profiles resolved by molecular sieve chromatography were monitored in-line by UV adsorption at 280 nm. Unliganded ±FN10-treated αVβ3 species were resolved as single discrete symmetrical peaks. Excess FN10 served as an internal standard. Identity of resolved peaks was formally confirmed by SDS-PAGE.

αVβ3(N339/S) = target: T3, αVβ3(N339/S) (Homo sapiens, UniProt P05106+P06756, N365S); assay: Binding of fluoresceinated FN10 to WT αVβ3 or αVβ3(N339/S) expressed on HEK293T cells
T3 construct: pcDNA3 plasmids encoding full-length WT αVβ3, αVβ3(Y122/A), αVβ3(N339/S); expressed in transfected cells; host or cells: HEK293T (transient)
T3 sequence (P06756 31-889 limits assumed): as the sequence (P06756 31-889 limits assumed) above
T3 sequence (P06756 891-1048 partner limits assumed): as the sequence (P06756 891-1048 partner limits assumed) above
T3 sequence (P05106 27-788 N365S): as the sequence (P05106 27-788) above, with N339S counted along it
Protocol: The human erythroleukemia cell line K562 stably expressing recombinant αVβ3 (K562-αVβ3) and the human melanoma cell line M21, which constitutively expresses αVβ3, have been previously described (Xiong, J. P. et al. The Journal of Cell Biology 186, 589-600 (2009); and Mitjans, F. et al. J Cell Sci 108 (Pt 8), 2825-2838 (1995)). Cells were maintained in Iscove's modified Dulbecco's medium (K562-αVβ3) or RPMI1640 (M21), supplemented with 10% fetal calf serum, 2 mM L-glutamine, penicillin and streptomycin, plus G418 (0.5-1.0 mg/ml) in cultured K562-αVβ3. HEK293T (ATCC) were transiently co-transfected with pcDNA3 plasmids encoding full-length WT αVβ3, αVβ3(Y122/A), αVβ3(N339/S), or αV(N266/Q)β3(N339/S) using Lipofectamine 2000 reagent (Invitrogen) according to the manufacturer's protocol.
In cellular and biochemical assays where calcium, magnesium or manganese ions were used, they were each at final concentrations of 1 mM. […] Binding of soluble FN10 to αVβ3^+ cells was expressed as mean fluorescence intensity (MR), as determined using the CellQuest software (BD). […] Mean and SD from independent experiments were calculated, and compared using Student's t test.

αVβ5 = αVβ5 (Homo sapiens, UniProt P06756+P18084); details: Moore et al, 2013; cited from earlier work
Sequence of αVβ5 (P06756 31-889 limits assumed): as the sequence (P06756 31-889 limits assumed) above
Sequence of αVβ5 (P06756 891-1048 partner limits assumed): as the sequence (P06756 891-1048 partner limits assumed) above
Sequence of αVβ5 (P18084 24-799): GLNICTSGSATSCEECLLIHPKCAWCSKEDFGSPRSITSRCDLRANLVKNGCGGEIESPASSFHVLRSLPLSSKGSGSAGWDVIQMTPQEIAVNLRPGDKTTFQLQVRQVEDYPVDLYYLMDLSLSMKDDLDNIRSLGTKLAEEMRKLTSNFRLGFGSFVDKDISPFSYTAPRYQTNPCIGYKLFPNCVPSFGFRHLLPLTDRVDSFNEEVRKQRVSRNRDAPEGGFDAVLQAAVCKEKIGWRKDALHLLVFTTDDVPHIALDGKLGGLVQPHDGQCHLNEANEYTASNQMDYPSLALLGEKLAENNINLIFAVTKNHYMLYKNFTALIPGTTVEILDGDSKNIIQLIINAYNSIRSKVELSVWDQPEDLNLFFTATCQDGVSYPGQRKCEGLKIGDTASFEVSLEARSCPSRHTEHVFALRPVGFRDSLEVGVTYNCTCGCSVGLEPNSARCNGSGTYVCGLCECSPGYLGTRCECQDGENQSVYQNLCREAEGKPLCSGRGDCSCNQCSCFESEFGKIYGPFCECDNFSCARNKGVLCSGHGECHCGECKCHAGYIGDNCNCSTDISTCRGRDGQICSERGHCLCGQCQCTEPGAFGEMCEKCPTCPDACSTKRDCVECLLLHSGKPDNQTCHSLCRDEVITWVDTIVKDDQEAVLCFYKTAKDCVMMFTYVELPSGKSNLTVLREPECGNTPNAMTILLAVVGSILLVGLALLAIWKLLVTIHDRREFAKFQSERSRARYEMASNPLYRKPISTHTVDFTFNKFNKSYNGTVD

α5β1 = α5β1 (Homo sapiens, UniProt P05556+P08648); details: Moore et al, 2013; cited from earlier work
αVβ3 [4] = target: T1, αVβ3; assay: Binding of fluoresceinated fluid-phase FN10 to K562-αVβ3 cells (flow cytometry); details: 1 mM Ca2+/Mg2+; fold over background
Protocol: In cellular and biochemical assays where calcium, magnesium or manganese ions were used, they were each at final concentrations of 1 mM. Cells stably (K562) or transiently (I-fEK293T) expressing WT or mutant forms of αVβ3 were preincubated (30 min; 0° C.) in the dark with Alexa647-conjugated AP3 (10 μg/ml), washed in Hepes-buffered saline (20 mM Hepes, 150 mM NaCl, pH 7.4) containing BSA (0.1% w/v; washing buffer, WB), incubated in 10 mM EDTA in WB (5 min; 25° C.), then washed three times in WB. […] Binding of soluble FN10 to αVβ3^+ cells was expressed as mean fluorescence intensity (MR), as determined using the CellQuest software (BD). Binding of soluble FN10 to HEK293T was normalized by dividing its MFI by the MFI of Alexa647-conjugated AP3 to the same cells and multiplying by 100. Mean and SD from independent experiments were calculated, and compared using Student's t test.

αVβ3^N/S = αVβ3^N/S (Homo sapiens, UniProt P05106+P06756, N365S); assay: Binding of fluorescein-tagged hFN10-G to preactivated cellular αVβ3(N/S); set-up: pcDNA3 plasmids encoding full-length WT αVβ3, αVβ3(Y122/A), αVβ3(N339/S); expressed in transfected cells; host or cells: HEK293T (transient); details: N339 to S activation
Sequence of αVβ3^N/S (P06756 31-889 limits assumed): as the sequence (P06756 31-889 limits assumed) above
Sequence of αVβ3^N/S (P06756 891-1048 partner limits assumed): as the sequence (P06756 891-1048 partner limits assumed) above
Sequence of αVβ3^N/S (P05106 27-788 N365S): as the sequence (P05106 27-788) above, with N339S counted along it
Excerpt: (§1) FIG. 9. […] (A) Superposed RGD-containing loops of hFN10 (gray in original), hFN10-G (pink in original) onto the RGD loop of frog γC (green in original). Sphere represents the metal ion at MIDAS.

αIIbβ3^N/S = target: T4, αIIbβ3^N/S (Homo sapiens, UniProt P05106+P08514, N365S); assay: Binding of fluorescein-tagged hFN10-G to preactivated cellular αIIbβ3(N/S); details: N339 to S activation
T4 construct: expressed in transfected cells
Excerpt: as §1

CC(C)[C@H]1C(=O)N[C@@H](CCCN=C(N)N)C(=O)NCC(=O)N[C@@H](CC(=O)O)C(=O)N[C@H](Cc2ccccc2)C(=O)N1C [cilengitide]
Effect on model tumor growth and angiogenesis [1]: paradoxically stimulated model tumor growth and angiogenesis

P/W knottin 2.5 F: knottin 2.5 F with Proline 10 replaced by Trp, expressed as Fc fusion protein (GCPRPRGDNWPLTCSQDSDCLAGCVCGPNGFCG; disulfide (positions not given here); also: cystine-knot disulfide bonds, pairing not given here, Fc fusion protein)
AP5 expression / integrin activation on K562-αVβ3 (αVβ3 [2]): suppressed AP5 expression
Binding to cellular αVβ3 (K562-αVβ3) (αVβ3 [3]): equivalent

full-length FN: full-length human plasma fibronectin from Sigma-Aldrich
Spreading of K562-αVβ3 cells on immobilized ligand (K562-αVβ3 cells): extensive spreading

hFN10: mutant high affinity form of the 10th type-III domain of fibronectin, loop PRGDWNEG, SEQ ID NO: 9
Stokes' radius (Rs) of αVβ3 complex (αVβ3 ectodomain): 6.3 nm
Binding to WT αVβ3 versus active αVβ3(N339/S) (αVβ3(N339/S)): similar
Spreading of K562-αVβ3 cells on immobilized ligand (K562-αVβ3 cells): little spreading

knottin 2.5 F: cysteine-knot peptide, chemically synthesized, published sequence (Kimura et al 2009) (GCPRPRGDNPPLTCSQDSDCLAGCVCGPNGFCG)
Binding to integrin αVβ5 (αVβ5): binds
Binding to integrin α5β1 (α5β1): binds

wtFN10: 10th type-III RGD-domain of wild-type human fibronectin, loop GRGDSPAS, SEQ ID NO: 20 [reference compound]
Binding of fluoresceinated FN10 to K562-αVβ3 (αVβ3 [4]): low background
Stokes' radius (Rs) of αVβ3 complex (αVβ3 ectodomain): 6.6 nm
Spreading of K562-αVβ3 cells on immobilized ligand (K562-αVβ3 cells): extensive spreading

B1: hFN10-G: hFN10 with a glycine inserted after proline 1492, SEQ ID NO: 29 (protein)
chain: SDVPRDLEVVAATPTSLLISWDAPAVTVRYYRITYGETGGNSPVQEFTVPGSKSTATISGLKPGVDYTITVYAVTPGRGDWNEGSKPISINY
Binding to preactivated cellular αVβ3^N/S (αVβ3^N/S): did not bind
Binding to preactivated cellular αIIbβ3^N/S (αIIbβ3^N/S): some binding
